± gives the uncertainty stated by the source.
B1: SH3 and PX domain-containing protein 2B, residues 155 to 209; numbered along this chain, A1X283 (parent)
chain: EQYVVVANYQKQESSEISLSVGQVVDIIEKNESGWWFVSTAEEQGWVPATCLEGQ

Variants of: B1
Assay: abundance fitness (aPCA) (normalised: wild type 0, dead -1); higher = more abundant; growth selection in yeast, the domain comes from the species named
Conditions: Homo sapiens

EQYVVVANYQKQESSEISLSVGQVVDIIEKNESGWWFVSTAEEQGWVPATYLEGQ [C51Y] and EQYHVVANYQKQESSEISLSVGQVVDIIEKNESGWWFVSTAEEQGWVPATCLEGQ [V4H] are within error of each other in abundance fitness: -0.271 ± 0.12 for the first, -0.308 ± 0.15 for the second.

KQYVVVANYQKQESSEISLSVGQVVDIIEKNESGWWFVSTAEEQGWVPATCLEGQ [E1K] and EQYVVVANYKKQESSEISLSVGQVVDIIEKNESGWWFVSTAEEQGWVPATCLEGQ [Q10K] are within error of each other in abundance fitness: 0.042 ± 0.16 for the first, -0.192 ± 0.15 for the second.

EQYVVVANYYKQESSEISLSVGQVVDIIEKNESGWWFVSTAEEQGWVPATCLEGQ [Q10Y] and EQYVVVANVQKQESSEISLSVGQVVDIIEKNESGWWFVSTAEEQGWVPATCLEGQ [Y9V] are within error of each other in abundance fitness: -0.333 ± 0.23 for the first, -0.249 ± 0.074 for the second.

First: EQYVVVANAQKQESSEISLSVGQVVDIIEKNESGWWFVSTAEEQGWVPATCLEGQ [Y9A]
Second: EQYVVVANYQKQESSEISLSVGQVVDIIEKNESGWLFVSTAEEQGWVPATCLEGQ [W36L]
The abundance fitness of the first is lower: -0.774 ± 0.12 for the first, -0.2 ± 0.078 for the second.

First: EQYVVVANYQKQESSEISLSVGQVVDIIEKNESGWHFVSTAEEQGWVPATCLEGQ [W36H]
Second: EQYVVVANYQKQESSEISLSVGQVVDIIEKNESGWWFVNTAEEQGWVPATCLEGQ [S39N]
The abundance fitness of the first is lower: -0.429 ± 0.17 for the first, -0.022 ± 0.14 for the second.

Going from EQYVVVANYQKQESSEESLSVGQVVDIIEKNESGWWFVSTAEEQGWVPATCLEGQ [I17E] to EQDVVVANYQKQESSEISLSVGQVVDIIEKNESGWWFVSTAEEQGWVPATCLEGQ [Y3D], the abundance fitness rises from -0.99 ± 0.15 to -0.162 ± 0.2.

First: EQGVVVANYQKQESSEISLSVGQVVDIIEKNESGWWFVSTAEEQGWVPATCLEGQ [Y3G]
Second: EQHVVVANYQKQESSEISLSVGQVVDIIEKNESGWWFVSTAEEQGWVPATCLEGQ [Y3H]
The abundance fitness of the first is higher: 0.003 ± 0.074 for the first, -0.537 ± 0.17 for the second.

EQYVVVANYQKQESSEISLWVGQVVDIIEKNESGWWFVSTAEEQGWVPATCLEGQ [S20W] and EQYVVVANYQKQESSEISLLVGQVVDIIEKNESGWWFVSTAEEQGWVPATCLEGQ [S20L] are within error of each other in abundance fitness: -0.165 ± 0.12 for the first, 0.015 ± 0.077 for the second.

EQYVVVANYQKQESSEISLFVGQVVDIIEKNESGWWFVSTAEEQGWVPATCLEGQ [S20F] and EQYVVVANYQKQESSEISLSVGQVVDIIEKNESGWWFVSTAEEQGWIPATCLEGQ [V47I] are within error of each other in abundance fitness: -0.085 ± 0.1 for the first, 0.11 ± 0.21 for the second.

Going from EQYVVVANYQKQESSEISLSVGQVVDIIEKNESGWWFVSTAEEQGWLPATCLEGQ [V47L] to EQYVVVANYQKQESSEISLSVGQVVDIIEKNESGWWFVSTAEEQGWSPATCLEGQ [V47S], the abundance fitness falls from -0.319 ± 0.076 to -0.567 ± 0.098.

EQYVVVANYQKQESSEISLSVGQVVDIIEKNESGWWFVSTAEEQGWAPATCLEGQ [V47A] and EQYVVVANYQKQESSEISLSVGQVVDIIEKNENGWWFVSTAEEQGWVPATCLEGQ [S33N] are within error of each other in abundance fitness: -0.106 ± 0.083 for the first, -0.09 ± 0.14 for the second.

EQYVVVAGYQKQESSEISLSVGQVVDIIEKNESGWWFVSTAEEQGWVPATCLEGQ [N8G] and EQYVVVAPYQKQESSEISLSVGQVVDIIEKNESGWWFVSTAEEQGWVPATCLEGQ [N8P] are within error of each other in abundance fitness: 0.012 ± 0.054 for the first, -0.069 ± 0.15 for the second.

Compared with EQYVVVATYQKQESSEISLSVGQVVDIIEKNESGWWFVSTAEEQGWVPATCLEGQ [N8T], EQYVVVANYQKQESSEISLSVKQVVDIIEKNESGWWFVSTAEEQGWVPATCLEGQ [G22K] is lower in abundance fitness: 0.018 ± 0.097 for the first, -0.789 ± 0.14 for the second.

Compared with EQYVVVANYQKQESSEISLSVGQVVDIIEKNESGWWFLSTAEEQGWVPATCLEGQ [V38L], EQYVVVANYQKQESSEISLSVGQVVDIIEKNESGWWFVSNAEEQGWVPATCLEGQ [T40N] is higher in abundance fitness: -0.736 ± 0.088 for the first, -0.137 ± 0.17 for the second.

EQYVVVANYQKQESSEISLSVGQVVDIIEKNESGWWFVSIAEEQGWVPATCLEGQ [T40I] and EQYVVVANYQKQESSEISLSVGQVVDIIEKNESGWWFVSMAEEQGWVPATCLEGQ [T40M] are within error of each other in abundance fitness: -0.121 ± 0.11 for the first, -0.065 ± 0.14 for the second.

Going from EQYVVVANYQKQESSEISLSVGQVVDIIEKNESGWWFVSHAEEQGWVPATCLEGQ [T40H] to EQYVVVANYQKQESSEISLSVGQVKDIIEKNESGWWFVSTAEEQGWVPATCLEGQ [V25K], the abundance fitness falls from -0.15 ± 0.16 to -0.902 ± 0.21.

EQYVVVANYQKQESSEISLSVGQVWDIIEKNESGWWFVSTAEEQGWVPATCLEGQ [V25W] and EQYVVVANYQKQESSEISLSVGQVPDIIEKNESGWWFVSTAEEQGWVPATCLEGQ [V25P] are within error of each other in abundance fitness: -0.983 ± 0.18 for the first, -0.825 ± 0.16 for the second.

EQYVVVANYQKQESSEISLSVGQVCDIIEKNESGWWFVSTAEEQGWVPATCLEGQ [V25C] and EQYVVVANYQKQESSEISLSVGQVVDIIEKNNSGWWFVSTAEEQGWVPATCLEGQ [E32N] are within error of each other in abundance fitness: -0.393 ± 0.21 for the first, -0.078 ± 0.15 for the second.

EQYVVVANYQKQESSEISLSVGQVVDIIEKNESGWWFVSTAEEQVWVPATCLEGQ [G45V] and EQYVVVANYQKQESSEISLSVGQVVDIIEKNESGWWFVSTAEEQMWVPATCLEGQ [G45M] are within error of each other in abundance fitness: -0.7 ± 0.088 for the first, -0.632 ± 0.13 for the second.

Compared with EQYVVVANYQKQEFSEISLSVGQVVDIIEKNESGWWFVSTAEEQGWVPATCLEGQ [S14F], EQYVVVANYQKQEASEISLSVGQVVDIIEKNESGWWFVSTAEEQGWVPATCLEGQ [S14A] is higher in abundance fitness: -0.458 ± 0.15 for the first, -0.13 ± 0.11 for the second.

Compared with EQYVVVANYQKQEMSEISLSVGQVVDIIEKNESGWWFVSTAEEQGWVPATCLEGQ [S14M], EQYVVVANYQKQESSEISLSVGQVVDIIEKNESGWWFVSTAEEQGWVCATCLEGQ [P48C] is lower in abundance fitness: -0.05 ± 0.13 for the first, -0.614 ± 0.15 for the second.

Going from EQYVVVANYQKQESSEISLSVGQVVDIIEKNESGWWFVSTAEEQGWVNATCLEGQ [P48N] to EQYVVVANYQKQESSEISLSVGQVVDIIEKNESGWWFVSTAEEEGWVPATCLEGQ [Q44E], the abundance fitness rises from -0.492 ± 0.11 to -0.143 ± 0.12.

EQYVVVANYQKQESSEISLSVGQVVDIIEKNESGWWFVSTFEEQGWVPATCLEGQ [A41F] and EQYVVVANYQKQESSEISLSVGQVVDIIEKNESGWWFVSTEEEQGWVPATCLEGQ [A41E] are within error of each other in abundance fitness: -0.113 ± 0.15 for the first, 0.069 ± 0.093 for the second.

Going from EQYVVVANYQKQESSEISLSVGQVVDIIEKNESGWWFVSTHEEQGWVPATCLEGQ [A41H] to EQYVVVANYQKQESSEISLSVGQVVDIIEKNESGWWFVSTWEEQGWVPATCLEGQ [A41W], the abundance fitness falls from -0.009 ± 0.1 to -0.376 ± 0.1.
